In US20160068605A1 (Janssen / Centocor, published 2016):

Assays:
[1] = target: T1, human CD123 SP1 ECD displayed on pDisplay-transfected cells (human, UniProt P26951 20-305); test: MSD-CAT on pDisplay cells
T1 construct: ECD anchored on the surface of stably transfected HEK293 cells by the PDGFR transmembrane domain; also called hCD123 SP1 cells; hCD123 cells
T1 sequence: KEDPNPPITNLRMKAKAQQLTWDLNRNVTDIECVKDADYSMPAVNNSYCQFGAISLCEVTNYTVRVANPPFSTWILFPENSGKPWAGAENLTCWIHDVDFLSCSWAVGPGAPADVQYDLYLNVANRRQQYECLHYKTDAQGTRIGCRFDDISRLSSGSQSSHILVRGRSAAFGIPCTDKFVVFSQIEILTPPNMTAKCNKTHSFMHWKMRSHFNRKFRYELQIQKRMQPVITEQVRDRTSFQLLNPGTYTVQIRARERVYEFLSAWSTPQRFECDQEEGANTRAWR
Experimental: (§1) The MSD-CAT was developed in-house as a label-free method to determine affinity using intact cells in a high throughput format. […] Cell lines used were human pDisplay CD123SP1 and pDisplay CD123SP2. […] These samples were prepared in DMEM Glutamax medium containing 0.05% Azide, 1% BSA, 3 mM EDTA. […] After equilibration the plate was centrifuged for 5 minutes ˜1000 rpm and free anti-CD3 detected on the supernatant. […] The assay buffer was removed without washing and 50 uL/well of 0.7 ug/mL of biotinylated antigen in assay buffer were added to MSD plates and incubated overnight (˜16 hours at 4° C.).

[2] = target: T2, human CD123 SP2 ECD displayed on pDisplay-transfected cells (human, UniProt P26951 101-305); test: MSD-CAT on pDisplay cells
T2 construct: ECD anchored on the surface of stably transfected HEK293 cells; also called hCD123 SP2 cells; pDisplay CD123SP2
T2 sequence: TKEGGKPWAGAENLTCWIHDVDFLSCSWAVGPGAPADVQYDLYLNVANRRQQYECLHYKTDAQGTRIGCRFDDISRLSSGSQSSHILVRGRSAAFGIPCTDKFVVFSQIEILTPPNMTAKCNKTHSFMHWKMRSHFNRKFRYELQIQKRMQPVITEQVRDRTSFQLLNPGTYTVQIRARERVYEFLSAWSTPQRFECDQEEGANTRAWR
Experimental: as §1

[3] = target: T3, Recombinant human CD123 SP1 ECD-His tag protein (human, UniProt P26951 20-305); test: SPR Biacore T200, captured antibody
T3 construct: bought from R&D Systems (#301-R3/CF); biotinylated for some assays; also called rhCD123 SP1; huCD123 ECD SP1
T3 sequence: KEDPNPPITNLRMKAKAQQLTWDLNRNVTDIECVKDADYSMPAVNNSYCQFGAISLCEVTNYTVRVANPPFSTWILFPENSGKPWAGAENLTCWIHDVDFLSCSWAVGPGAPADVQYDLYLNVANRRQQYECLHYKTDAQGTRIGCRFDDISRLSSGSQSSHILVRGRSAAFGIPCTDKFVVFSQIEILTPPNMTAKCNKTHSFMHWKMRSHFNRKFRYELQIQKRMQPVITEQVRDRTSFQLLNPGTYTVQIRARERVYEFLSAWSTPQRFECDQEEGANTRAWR
Experimental: (§2) Kinetic studies were performed at 25° C. using a Biacore T200 (Biacore, Inc., now part of GE Healthcare). […] The carboxymethyl groups of dextran were activated with N-Ethyl-N′-(3-Dimethylaminopropyl)carbodiimide (EDC) and N-hydroxysuccinimide (NHS). The anti-Fc antibody was coupled at pH 4.5 in 10 mM sodium acetate. Any remaining reactive sites on the surface were blocked by reaction with ethanolamine. […] 40-70 RU of antibody were captured. […] Association data was collected for 2 min followed by 10 min of dissociation. The surface was regenerated with 30 μL of 100 mM H3PO4 100 μL/min, followed by 50 mM NaOH. The samples for kinetic analysis were prepared in PBS-based buffer (D-PBS containing 3 mM EDTA and 0.005% surfactant P20). Data reported is the difference in SPR signal between the flow cell containing the captured antibody and a reference cell without captured antibody. Additional instrumental contributions to the signal were removed by subtraction of the data from the blank injection from the reference-subtracted signal. Data were analyzed by fitting association and dissociation phases at all concentrations (global fit) with a 1:1 binding model using the BIAevaluation software (BIAcore, Inc.).

[4] = target: T4, Recombinant human CD123 SP2 ECD protein (human, UniProt P26951 101-303); test: SPR Biacore T200, captured antibody
T4 construct: also called rhCD123 SP2; CD123 ECD SP2
T4 sequence: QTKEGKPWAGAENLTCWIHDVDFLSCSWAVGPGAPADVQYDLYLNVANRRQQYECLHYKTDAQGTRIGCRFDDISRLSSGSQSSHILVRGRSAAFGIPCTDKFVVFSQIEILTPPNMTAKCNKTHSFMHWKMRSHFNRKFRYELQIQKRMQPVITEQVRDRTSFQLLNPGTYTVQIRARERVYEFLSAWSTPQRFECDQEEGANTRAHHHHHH
Experimental: as §2

[5] = target: T5, cell-surface CD3 epsilon on primary cynomolgus T cells (cynomolgus monkey, UniProt Q95LI5 22-198); test: flow cytometry competition with labeled CD3B146 on T cells
T5 construct: whole, on cells; also called cynomolgus CD3e; Cyno T-cells
T5 sequence (Q95LI5 22-198): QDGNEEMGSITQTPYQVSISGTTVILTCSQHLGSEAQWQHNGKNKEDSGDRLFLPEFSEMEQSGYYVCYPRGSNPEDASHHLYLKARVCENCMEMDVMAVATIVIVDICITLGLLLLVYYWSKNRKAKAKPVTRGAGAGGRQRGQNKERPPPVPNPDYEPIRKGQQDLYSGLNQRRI
Description: (§3) The format involved competition binding using a fixed concentration of labeled anti-CD3 mAb of known affinity and increasing concentrations of unlabeled test Abs (Ashkenazi A et al. PNAS: 88:10535, 1991.).

[6] = target: T6, cell-surface CD3 epsilon on primary human T cells (human, UniProt P07766 23-207); test: as above
T6 construct: whole, on cells; part of the CD3/TCR complex on the cells
T6 sequence (P07766 23-207): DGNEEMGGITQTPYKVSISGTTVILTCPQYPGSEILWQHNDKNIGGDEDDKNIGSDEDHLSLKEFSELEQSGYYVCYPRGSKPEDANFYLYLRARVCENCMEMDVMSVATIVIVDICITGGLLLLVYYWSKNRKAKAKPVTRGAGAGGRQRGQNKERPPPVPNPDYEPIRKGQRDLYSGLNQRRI
Description: as §3

[7] = target: T6, cell-surface CD3 epsilon on primary …; test: competition flow cytometry on primary human T cells (Human Donor 10357); competitor displaced: Alexa Fluor 488-labelled CD3B146
Description: as §3

B1: bispecific antibody 9958 Ab (bispecific antibody, human IgG4 S228P, kappa, lambda, F234A L235A)
heavy 1: EVQLVESGGGLVQPGGSLKLSCAASGFTFNTYAMNWVRQASGKGLEWVGRIRSKYNAYATYYAASVKGRFTISRDDSKNTAYLQMNSLKTEDTAVYYCTRHGNFGNSYVSWFAYWGQGTLVTVSSASTKGPSVFPLAPCSRSTSESTAALGCLVKDYFPEPVTVSWNSGALTSGVHTFPAVLQSSGLYSLSSVVTVPSSSLGTKTYTCNVDHKPSNTKVDKRVESKYGPPCPPCPAPEAAGGPSVFLFPPKPKDTLMISRTPEVTCVVVDVSQEDPEVQFNWYVDGVEVHNAKTKPREEQFNSTYRVVSVLTVLHQDWLNGKEYKCKVSNKGLPSSIEKTISKAKGQPREPQVYTLPPSQEEMTKNQVSLTCLVKGFYPSDIAVEWESNGQPENNYKTTPPVLDSDGSFLLYSKLTVDKSRWQEGNVFSCSVMHEALHNHYTQKSLSLSLGK
light 1: QAVVTQEPSLTVSPGGTVTLTCRSSTGAVTTSNYANWVQQKPGQAPRGLIGGTNKRAPGTPARFSGSLLGGKAALTLSGAQPEDEAEYYCALWYSNLWVFGGGTKLTVLGQPKAAPSVTLFPPSSEELQANKATLVCLISDFYPGAVTVAWKADSSPVKAGVETTTPSKQSNNKYAASSYLSLTPEQWKSHRSYSCQVTHEGSTVEKTVAPTECS
heavy 2: not shown
light 2: EIVLTQSPGTLSLSPGERATLSCRASQSVSSSYLAWYQQKPGQAPRLLIYGASSRATGIPDRFSGSGSGTDFTLTISRLEPEDFAVYYCQQDYGFPWTFGQGTKVEIKRTVAAPSVFIFPPSDEQLKSGTASVVCLLNNFYPREAKVQWKVDNALQSGNSQESVTEQDSKDSTYSLSSTLTLSKADYEKHKVYACEVTHQGLSSPVTKSFNRGEC
notes: IgG4-PAA; CD3 arm of CD3B220, CD123 arm of I3RB217 (I3RB18)
- Kd [1]: 0.121 nM
- Kd [2]: 0.538 nM
- Kd [3]: 1.34 nM
- koff [3]: 0.00079 s⁻¹
- kon [3]: 587000 M⁻¹ s⁻¹
- Kd [4]: 0.311 nM
- koff [4]: 0.0011 s⁻¹
- kon [4]: 3.57e+06 M⁻¹ s⁻¹
- Kd [5]: 29.1 nM
- Kd [6]: 43 nM
- IC50 (read off the curve) [7]: ~80 nM

B2: bispecific antibody Ab 5466 (bispecific antibody, human IgG4 S228P, kappa, lambda, F234A L235A)
heavy 1: EVQLVESGGGLVQPGGSLKLSCAASGFTFNTYAMNWVRQASGKGLEWVGRIRSKYNAYATYYAASVKGRFTISRDDSKNTAYLQMNSLKTEDTAVYYCTRHGNFGNSYVSWFAYWGQGTLVTVSSASTKGPSVFPLAPCSRSTSESTAALGCLVKDYFPEPVTVSWNSGALTSGVHTFPAVLQSSGLYSLSSVVTVPSSSLGTKTYTCNVDHKPSNTKVDKRVESKYGPPCPPCPAPEAAGGPSVFLFPPKPKDTLMISRTPEVTCVVVDVSQEDPEVQFNWYVDGVEVHNAKTKPREEQFNSTYRVVSVLTVLHQDWLNGKEYKCKVSNKGLPSSIEKTISKAKGQPREPQVYTLPPSQEEMTKNQVSLTCLVKGFYPSDIAVEWESNGQPENNYKTTPPVLDSDGSFLLYSKLTVDKSRWQEGNVFSCSVMHEALHNHYTQKSLSLSLGK
light 1: QAVVTQEPSLTVSPGGTVTLTCRSSTGAVTTSNYANWVQQKPGQAPRGLIGGTNKRAPGTPARFSGSLLGGKAALTLSGAQPEDEAEYYCALWYSNLWVFGGGTKLTVLGQPKAAPSVTLFPPSSEELQANKATLVCLISDFYPGAVTVAWKADSSPVKAGVETTTPSKQSNNKYAASSYLSLTPEQWKSHRSYSCQVTHEGSTVEKTVAPTECS
heavy 2: not shown
light 2: not shown
- Kd [1]: 2.43 nM
- Kd [2]: 1.72 nM
- Kd [3]: 13.7 nM
- koff [3]: 0.0051 s⁻¹
- kon [3]: 371000 M⁻¹ s⁻¹
- Kd [4]: 1.69 nM
- koff [4]: 0.0049 s⁻¹
- kon [4]: 2.88e+06 M⁻¹ s⁻¹
- Kd [5]: 25.3 nM
- Kd [6]: 27.9 nM
- IC50 (read off the curve) [7]: ~70 nM

B3: bispecific antibody Ab 8747 (bispecific antibody, human IgG4 S228P, kappa, lambda, F234A L235A)
heavy 1: EVQLVESGGGLVQPGGSLRLSCAASGFTFNTYAMNWVRQAPGKGLEWVARIRSKYNNYATYYAASVKGRFTISRDDSKNSLYLQMNSLKTEDTAVYYCARHGNFGNSYVSWFAYWGQGTLVTVSSASTKGPSVFPLAPCSRSTSESTAALGCLVKDYFPEPVTVSWNSGALTSGVHTFPAVLQSSGLYSLSSVVTVPSSSLGTKTYTCNVDHKPSNTKVDKRVESKYGPPCPPCPAPEAAGGPSVFLFPPKPKDTLMISRTPEVTCVVVDVSQEDPEVQFNWYVDGVEVHNAKTKPREEQFNSTYRVVSVLTVLHQDWLNGKEYKCKVSNKGLPSSIEKTISKAKGQPREPQVYTLPPSQEEMTKNQVSLTCLVKGFYPSDIAVEWESNGQPENNYKTTPPVLDSDGSFLLYSKLTVDKSRWQEGNVFSCSVMHEALHNHYTQKSLSLSLGK
light 1: QTVVTQEPSLTVSPGGTVTLTCRSSTGAVTTSNYANWVQQKPGQAPRGLIGGTNKRAPGTPARFSGSLLGGKAALTLSGVQPEDEAEYYCALWYSNLWVFGGGTKLTVLGQPKAAPSVTLFPPSSEELQANKATLVCLISDFYPGAVTVAWKADSSPVKAGVETTTPSKQSNNKYAASSYLSLTPEQWKSHRSYSCQVTHEGSTVEKTVAPTECS
heavy 2: not shown
light 2: not shown
- Kd [1]: 1.76 nM
- Kd [2]: 2.21 nM
- Kd [3]: 14.3 nM
- koff [3]: 0.0048 s⁻¹
- kon [3]: 337000 M⁻¹ s⁻¹
- Kd [4]: 1.63 nM
- koff [4]: 0.0052 s⁻¹
- kon [4]: 3.19e+06 M⁻¹ s⁻¹
- Kd [5]: 9.5 nM
- Kd [6]: 9.6 nM
- IC50 (read off the curve) [7]: ~20 nM

B4: bispecific antibody Ab 7959 (bispecific antibody, human IgG4 S228P, kappa, lambda, F234A L235A)
heavy 1: EVQLVESGGGLVQPGGSLRLSCAASGFTFNTYAMNWVRQAPGKGLEWVARIRSKYNNYATYYAASVKGRFTISRDDSKNSLYLQMNSLKTEDTAVYYCARHGNFGNSYVSWFAYWGQGTLVTVSSASTKGPSVFPLAPCSRSTSESTAALGCLVKDYFPEPVTVSWNSGALTSGVHTFPAVLQSSGLYSLSSVVTVPSSSLGTKTYTCNVDHKPSNTKVDKRVESKYGPPCPPCPAPEAAGGPSVFLFPPKPKDTLMISRTPEVTCVVVDVSQEDPEVQFNWYVDGVEVHNAKTKPREEQFNSTYRVVSVLTVLHQDWLNGKEYKCKVSNKGLPSSIEKTISKAKGQPREPQVYTLPPSQEEMTKNQVSLTCLVKGFYPSDIAVEWESNGQPENNYKTTPPVLDSDGSFLLYSKLTVDKSRWQEGNVFSCSVMHEALHNHYTQKSLSLSLGK
light 1: QTVVTQEPSLTVSPGGTVTLTCRSSTGAVTTSNYANWVQQKPGQAPRGLIGGTNKRAPGTPARFSGSLLGGKAALTLSGVQPEDEAEYYCALWYSNLWVFGGGTKLTVLGQPKAAPSVTLFPPSSEELQANKATLVCLISDFYPGAVTVAWKADSSPVKAGVETTTPSKQSNNKYAASSYLSLTPEQWKSHRSYSCQVTHEGSTVEKTVAPTECS
heavy 2: not shown
light 2: EIVLTQSPGTLSLSPGERATLSCRASQSVSSSYLAWYQQKPGQAPRLLIYGASSRATGIPDRFSGSGSGTDFTLTISRLEPEDFAVYYCQQDYGFPWTFGQGTKVEIKRTVAAPSVFIFPPSDEQLKSGTASVVCLLNNFYPREAKVQWKVDNALQSGNSQESVTEQDSKDSTYSLSSTLTLSKADYEKHKVYACEVTHQGLSSPVTKSFNRGEC
notes: IgG4-PAA; CD3 arm of CD3B219, CD123 arm of I3RB217 (I3RB18)
- Kd [1]: 0.149 nM
- Kd [2]: 0.461 nM
- Kd [3]: 1.53 nM
- koff [3]: 0.00088 s⁻¹
- kon [3]: 579000 M⁻¹ s⁻¹
- Kd [4]: 0.335 nM
- koff [4]: 0.0013 s⁻¹
- kon [4]: 3.78e+06 M⁻¹ s⁻¹
- Kd [5]: 11.2 nM
- Kd [6]: 11 nM
- IC50 (read off the curve) [7]: ~20 nM
